Reference: publication PMC2112147

Key:
[1] = target: rabbit skeletal muscle actin (rabbit) (UniProt P68135); experiment: co-sedimentation; conditions: scale: G-actin units per actinogelin dimeric unit
[2] = target: actinogelin (mouse (endogenous in Ehrlich tumor cells)) (UniProt Q7TPR4); experiment: AUC
[3] = target: actinogelin (mouse (endogenous in Ehrlich tumor cells)) (UniProt Q7TPR4); experiment: cross-linking

actinogelin, sequence (Q7TPR4 whole entry): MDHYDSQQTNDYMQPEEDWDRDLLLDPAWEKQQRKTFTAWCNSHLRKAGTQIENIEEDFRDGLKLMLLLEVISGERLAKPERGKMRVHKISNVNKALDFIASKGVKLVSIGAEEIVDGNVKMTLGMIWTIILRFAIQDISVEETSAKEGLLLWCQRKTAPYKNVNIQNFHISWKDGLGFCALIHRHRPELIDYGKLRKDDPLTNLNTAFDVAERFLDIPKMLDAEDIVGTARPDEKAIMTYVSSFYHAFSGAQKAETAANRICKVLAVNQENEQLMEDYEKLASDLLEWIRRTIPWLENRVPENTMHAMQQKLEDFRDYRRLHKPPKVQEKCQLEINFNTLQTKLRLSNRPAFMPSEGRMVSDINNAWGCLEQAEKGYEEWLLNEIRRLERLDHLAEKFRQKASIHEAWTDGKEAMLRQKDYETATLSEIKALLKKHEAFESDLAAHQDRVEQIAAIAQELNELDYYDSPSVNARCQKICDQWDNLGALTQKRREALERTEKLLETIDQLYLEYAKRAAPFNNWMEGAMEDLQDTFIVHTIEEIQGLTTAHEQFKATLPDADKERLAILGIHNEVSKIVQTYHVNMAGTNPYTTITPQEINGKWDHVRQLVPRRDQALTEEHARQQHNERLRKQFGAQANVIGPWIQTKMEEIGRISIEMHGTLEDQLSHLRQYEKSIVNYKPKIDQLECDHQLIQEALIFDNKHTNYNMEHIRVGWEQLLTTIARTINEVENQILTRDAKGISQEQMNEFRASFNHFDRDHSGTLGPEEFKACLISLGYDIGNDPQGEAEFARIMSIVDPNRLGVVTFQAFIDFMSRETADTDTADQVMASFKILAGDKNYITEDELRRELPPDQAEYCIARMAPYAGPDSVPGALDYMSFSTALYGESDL

actinogelin (from UniProt Q7TPR4 1-892) (natural protein)
stoichiometry N [1]: 10 to 12 | stoichiometry N [2]: 2 subunits | stoichiometry N [3]: 2 subunits
